Assay results reported in US20110189154A1 (published 2011).

Target: T1, Tsa1 (S. cerevisiae 2-Cys peroxyredoxin) (S. cerevisiae, UniProt P34760 2-196)
T1 construct: Endogenous yeast protein after H2O2 treatment of the cells; also called Tsa1 protein
T1 sequence (looked up): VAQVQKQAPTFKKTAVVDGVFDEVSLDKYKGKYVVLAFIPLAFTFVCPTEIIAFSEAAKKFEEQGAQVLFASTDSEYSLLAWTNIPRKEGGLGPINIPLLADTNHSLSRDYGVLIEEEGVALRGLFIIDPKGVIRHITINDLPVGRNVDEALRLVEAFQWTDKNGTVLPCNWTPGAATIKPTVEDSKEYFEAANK
Assay: Western blot of Srx1-HA after nonreducing/reducing SDS-PAGE (FIG. 7a)
Description: FIG. 7 illustrates the interaction between Tsa1 and Srx1 in a covalent (disulfide bridge) and noncovalent manner; FIG. 7a: Western blotting of the HA-tagged Srx1 protein (lanes 1, 2 and 3) or of HA-tagged Srx1^C84S (lane 4) expressed in a wild-type strain (WT) (lanes 1, 2, 4) or in Δtsa1 cells (lane 3) treated for 15 min with H₂O₂ (500 μM), after SDS-PAGE electrophoresis carried out under reducing (R) (lane 2) or nonreducing (NR) (lanes 1, 3, 4) conditions; FIG. 7b: the proteins copurified with the Srx1 tagged with 6His (lanes 2, 4) or the untagged Srx1 (lanes 1, 3) under nonreducing conditions are separated by SDS-PAGE under nonreducing (lanes 1, 2) or reducing (lanes 3, 4) conditions and visualized by Coomassie blue staining. The protein bands are identified by MALDI-TOF mass spectrometry as indicated;
(A) Cells containing a tagged (HA) copy of the Srx1 protein are treated with 500 μM of H₂O₂ for 15 minutes. […]

B1: Srx1-HA (S. cerevisiae Srx1 with two HA epitopes at the C-terminal) (enzyme, not shown: small tags and cut ends)
chain: MSLQSNSVKPTEIPLSEIRRPLAPVLDPQKIDAMVATMKGIPTASKTCSLEQAEAAASAGELPPVDVLGVRVKGQTLYYAFGGCHRLQAYDRRARETQNAAFPVRCRVLPATPRQIRMYLGSSLDIE
modifications: Two HA epitopes fused at the C-terminal of Srx1 (letters not given, left out). In the assay Cys84 forms an intermolecular disulfide bridge with Tsa1.
notes: also called HA-tagged Srx1 protein
**Q.** Does B1 bind?
**A.** Result: binds
